Experimental data: article PMC3749136 (2013)

Experiments:
[1] = biological target: JAK3 JH1 domain (UniProt P52333 822-1111); assay: SPR
[2] = biological target: T1, TYK2 JH1 domain (UniProt P29597 897-1176); assay: SPR
T1 chain: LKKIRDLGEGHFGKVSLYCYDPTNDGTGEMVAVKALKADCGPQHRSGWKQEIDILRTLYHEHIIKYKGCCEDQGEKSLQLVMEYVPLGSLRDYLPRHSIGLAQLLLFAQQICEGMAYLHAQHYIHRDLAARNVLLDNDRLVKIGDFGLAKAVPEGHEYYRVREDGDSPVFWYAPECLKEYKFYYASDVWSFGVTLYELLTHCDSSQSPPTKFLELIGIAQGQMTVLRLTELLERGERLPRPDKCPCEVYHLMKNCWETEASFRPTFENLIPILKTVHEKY

Sequence of JAK3 JH1 domain (P52333 822-1111): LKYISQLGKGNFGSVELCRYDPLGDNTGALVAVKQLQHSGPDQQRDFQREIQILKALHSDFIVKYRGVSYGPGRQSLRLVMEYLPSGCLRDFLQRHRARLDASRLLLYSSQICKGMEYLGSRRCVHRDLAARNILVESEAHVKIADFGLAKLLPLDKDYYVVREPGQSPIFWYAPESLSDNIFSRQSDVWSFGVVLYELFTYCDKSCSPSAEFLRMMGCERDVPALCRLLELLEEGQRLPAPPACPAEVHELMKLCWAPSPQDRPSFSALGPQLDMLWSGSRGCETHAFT

B1: SOCS5 175–244 fragment (domain or fragment)
chain: RSLRQRLQDTVGLCFPMRTYSKQSKPLFSNKRKIHLSELMLEKCPFPAGSDLAQKWHLIKQHTAPVSPHS
B1 was tested, and the Kd [1] was 2100 nM and the Kd [2] was 1200 nM.
